Experimental data reported in patent publication US20240325556A1, “Methods of Using Antibody-Drug-Conjugates” (priority 2021, published 2024).
Where two headings read alike, the source gives them in different places. Square brackets hold non-standard residues; d marks the D form. Peptide text beside a SMILES is read from it. * marks the point of attachment. Dolaproine = CO[C@@H]([C@@H]1CCCN1)[C@@H](C)C(=O)O; Dil = CC[C@H](C)[C@H](NC)[C@@H](CC(=O)O)OC; X1 = C[C@@H](N*)[C@@H](O)c1ccccc1; NMeV = CN[C@H](C(=O)O)C(C)C

Columns and labels:
NCI-H1781 cells = assay: In vitro cytotoxicity assay against nectin-4-expressing cell line NCI-H1781; format: cell-based; details: for IC50: NCI-H1781 cells, 5 days incubation, CellTiter-Glo viability, read-out: Absolute IC50
Procedure: Cell lines were plated on Day −1 in 96-well plates (Corning #3603) at a density of 4×10^3 cells/well in 100 μL of growth media and cultured overnight. On Day 0, serial dilution of test samples was performed in growth media at 6× the final concentration and 20 μL was added to the cells. After incubation at 37° C. with 5% CO2 for 5 days, viability was measured using Promega CellTiter-Glo® according to the manufacturer's recommendations.
Methods: Free payloads (MMAE and camptothecin) and nectin-4 ADCs carrying either MMAE, camptothecin, or maytansine were produced and tested in an in vitro cytotoxicity assay against the nectin-4-expressing cell line, NCI-H1781 (FIG. 1).

Male Sprague-Dawley rats = assay: Non-GLP rat toxicology study of nectin-4 ADCs; format: in vivo; details: 4 doses
Procedure: (§1) Male Sprague-Dawley rats (8-9 wk old at study start, 5 animals/group) were dosed intravenously with either vehicle alone or with nectin-4 conjugates made using antibodies carrying the variable regions of the rat cross-reactive antibody, enfortumab. The tested ADCs were nectin-4 vedotin (dosed at 10 mg/kg), and nectin-4 CH1/CT RED-106 (dosed at either 10 or 20 mg/kg). Dosing occurred weekly for a total of 4 doses (days 1, 8, 15, and 22). […] Body weights were recorded four times/week. Blood was collected from all animals for clinical pathology on days 5, 12, 19, and 26, and for toxicokinetic analysis at 8 h and days 4 and 7 post-dose (for all doses). Clinical observations were conducted daily.
Methods: Rat cross-reactive nectin-4 ADCs carrying either RED-106 or vedotin linker-payloads were prepared (DAR depicted in FIGS. 8A-8D) and tested in a rat toxicity study.

[1] = Toxicokinetic analysis of rat plasma samples (total antibody and total ADC ELISA); format: in vivo; details: repeat dose toxicity study, listed as RED-106 conjugate
Procedure: as §1
Methods: Total antibody and total ADC concentrations were quantified by ELISA as previously described and diagrammed in the figure. For total antibody, conjugates were captured with an anti-human IgG-specific antibody and detected with an HRP-conjugated anti-human Fc-specific antibody. For total ADC, conjugates were captured with an anti-human Fab-specific antibody and detected with a mouse anti-maytansine primary antibody, followed by an HRP-conjugated anti-mouse IgG-subclass 1-specific secondary antibody. Bound secondary antibody was detected using Ultra TMB One-Step ELISA substrate (Thermo Fisher). […] Data were analyzed using GraphPad Prism and Microsoft Excel software.

[2] = 10 mg/kg weekly for four doses; cited from earlier work
[3] = preclinical and clinical effects; cited from earlier work

N.N.[Cl][Pt][Cl] [Cisplatin]
IC50 (NCI-H1781 cells): 230 nM

CC[C@@]1(O)C(=O)OCc2c1cc1n(c2=O)Cc2cc3ccccc3nc2-1 [Free Camptothecin, camptothecin]
IC50 (NCI-H1781 cells; 120 h): 1 nM

Nectin-4 CH1/CT RED-106: nectin-4 ADC with variable regions of enfortumab, CH1/CT aldehyde-tagged, carrying RED-106 maytansine linker-payload
IC50 (NCI-H1781 cells): 1 nM | In vitro potency of RED-106 conjugate compared with MMAE conjugate (NCI-H1781 cells; NCI-H1781 target cell line): similar | Mortality (Male Sprague-Dawley rats; 10 or 20 mg/kg i.v. weekly): no mortalities | Signs of fur/skin toxicity compared with vedotin conjugate (Male Sprague-Dawley rats; 10 or 20 mg/kg i.v. weekly): fewer signs of fur/skin toxicity | In vivo stability of the conjugate compared with the vedotin ADC [1]: improved in vivo stability

nectin-4 vedotin: nectin-4 conjugate with enfortumab variable regions, untagged antibody conjugated with maleimide-valcit-MMAE [reference compound]
Clinical signs of toxicity in fur and skin (Male Sprague-Dawley rats; 10 mg/kg i.v. weekly): all animals exhibited clinical signs of toxicity in fur and skin | Animals euthanized in distress (Male Sprague-Dawley rats; 10 mg/kg i.v. weekly, 5 animals/group): 1 animal | Toxicity noted in previous reports [2]: fur and skin toxicity and mortality

CC[C@H](C)[C@@H]([C@@H](CC(=O)N1CCC[C@H]1[C@H](OC)[C@@H](C)C(=O)N[C@H](C)[C@@H](O)c1ccccc1)OC)N(C)C(=O)[C@@H](NC(=O)[C@@H](NC)C(C)C)C(C)C [Free MMAE, monomethyl auristatin E] (H-[NMeV]V[Dil][Dolaproine]-X1)
IC50 (NCI-H1781 cells): 0.3 nM

B1: DS-1062 (conjugate, chains of the INN, looked up)
VH: QVQLVQSGAEVKKPGASVKVSCKASGYTFTTAGMQWVRQAPGQGLEWMGWINTHSGVPKYAEDFKGRVTISADTSTSTAYLQLSSLKSEDTAVYYCARSGFGSSYWYFDVWGQGTLVTVSS
VL: DIQMTQSPSSLSASVGDRVTITCKASQDVSTAVAWYQQKPGKAPKLLIYSASYRYTGVPSRFSGSGSGTDFTLTISSLQPEDFAVYYCQQHYITPLTFGQGTKLEIK
modifications: deruxtecan payload
Toxicity noted in previous reports [3]: skin and mucosal toxicity
